Columns and labels:
[1] = target: GluA2 flip splice variant (R/G edited) (UniProt P19491)
[2] = target: GluA2 flop splice variant (UniProt P19491)
[3] = target: GluA2 flip splice variant (R/G edited) (UniProt P19491); remark: listed apart in the source
[4] = target: GluA2, native in CA1 pyramidal cells (rat (endogenous in hippocampal slice cultures)) (UniProt P19491)

Substance	rectification index (g+10 / g-40) of I/V relationships with 100 uM intracellular spermine, HEK293T cells cotransfected at an A1/A2 ratio of 4:1; marker for heteromerization competence [1]	rectification index of patches from HEK293 cells expressing A1i/A2o and γ-8 (threshold by which patches were chosen) [2]	rectification index of patches from HEK293 cells expressing A1o/A2i and γ-8 (threshold by which patches were chosen) [3]	percentage block of the peak glutamate current by 100 μM philanthotoxin 74 (selective for A1/A2 heteromers), CA1 patches, control slices, mean [4] [%]	percentage block of the peak glutamate current by 100 μM philanthotoxin 74 (selective for A1/A2 heteromers), CA1 patches, slices after 48 hr TTX, mean [4] [%]
GluA1 flip splice variant (from UniProt P19490-2 19-907) (receptor)	0.1	> 0.7	–	–	–
GluA1 flop splice variant (from UniProt P19490 19-907) (receptor)	0.7	–	> 0.7	–	–
GluA1, native in CA1 pyramidal cells (from UniProt P19490 19-907) (receptor)	–	–	–	95	93.9
